How the values were obtained:
[1] = target: monopartite NLS peptide (mpNLS) from the SV40 large T antigen (SV40); experiment: fluorescence polarisation
[2] = target: bipartite NLS (bpNLS) from the nucleoplasmin; experiment: fluorescence polarisation
[3] = target: eVP24–KPNA5-ΔIBB complex (human | Ebola virus) (UniProt Q05322); experiment: native MS
[4] = target: bipartite NLS (bpNLS) from the nucleoplasmin; experiment: native MS

eVP24–KPNA5-ΔIBB complex (from UniProt Q05322 11-237)
Kd [1]: 5200 nM
Kd [2]: 210 nM
stoichiometry N [3]: 2
stoichiometry N [4]: 1
